Source: patent publication US20030129189A1, “Tumor necrosis factor-gamma” (priority 1994, published 2003)

Legend:
[1] = molecular target: T1, TNF-gamma-beta (Homo sapiens, UniProt O95150); test: Inhibition of TNF-gamma-beta-mediated IFNγ secretion from T cells; type: cell-based; details: costimulated T cells
T1 construct: made in house; host or cells: E. coli (untagged) or 293T (FLAG-tagged)
T1 sequence (O95150 72-251): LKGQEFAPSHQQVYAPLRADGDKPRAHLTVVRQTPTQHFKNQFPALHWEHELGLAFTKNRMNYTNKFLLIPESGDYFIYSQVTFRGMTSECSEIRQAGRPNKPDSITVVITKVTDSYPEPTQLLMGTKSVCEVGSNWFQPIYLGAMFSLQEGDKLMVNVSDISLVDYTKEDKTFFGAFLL
Procedure: The extent of the increase in IL-2 receptor expression is consistent with the moderate increase in IL-2 responsiveness compared with IL-2 itself.
1×10^5 cells/ml of purified T cells were seeded in a 24-well tissue culture plate that had been coated with anti-CD3 (0.3 microgram/ml) and anti-CD28 (5.0 microgram/ml) overnight at 4° C. […] ELISA assay for IFNγ, GM-CSF, IL-2 IL-4, IL-10 and TNFα were performed using kits purchased from R & D Systems. Recombinant human IL-2 (5 ng/ml) was used as a positive control. All samples were tested in duplicate and results were expressed as an average of duplicate samples plus or minus error.

[2] = molecular target: T2, TNF-gamma-beta (Homo sapiens, UniProt O95150); test: Coimmunoprecipitation of TNF-gamma-beta by TNFR-Fc proteins; type: binding
T2 construct: made in house; host or cells: 293T cells, transient transfection
T2 sequence (O95150 72-251 limits assumed): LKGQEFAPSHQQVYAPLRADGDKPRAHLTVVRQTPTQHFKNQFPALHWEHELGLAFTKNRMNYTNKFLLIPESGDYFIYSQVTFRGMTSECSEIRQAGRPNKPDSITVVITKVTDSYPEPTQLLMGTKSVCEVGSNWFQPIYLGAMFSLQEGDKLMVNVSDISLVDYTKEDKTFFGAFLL
Description: The beads were then precipitated and washed extensively with PBST buffer (PBS, 0.5% Triton X-100) before boiled in SDS-sample buffer. Proteins were resolved on 4-20% Tris-Glycine gels (NOVEX), transferred to nitrocellulose membranes, and blotted with anti-Flag M2 monoclonal antibody (1 microgram/ml, Sigma) andhorseradish peroxidase (HRP)-conjugated goat anti-mouse IgG antibody (0.5 microgram/ml).

[3] = molecular target: T3, TNF-gamma-beta (Homo sapiens, UniProt O95150); test: FACS binding of receptor-Fc proteins to cells expressing full length TNF-gamma-beta
T3 construct: expressed in transfected cells
T3 sequence (O95150 1-251): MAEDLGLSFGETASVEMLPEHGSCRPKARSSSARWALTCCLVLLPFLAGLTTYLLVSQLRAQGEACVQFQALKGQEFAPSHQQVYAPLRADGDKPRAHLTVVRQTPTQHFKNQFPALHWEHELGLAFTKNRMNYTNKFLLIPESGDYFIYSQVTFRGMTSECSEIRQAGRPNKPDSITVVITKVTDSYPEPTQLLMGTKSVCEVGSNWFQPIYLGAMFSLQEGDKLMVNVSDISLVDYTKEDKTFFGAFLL
Procedure: These cells were used to screen the Fc-fusion form of the extracellular domain of TNFR family members, including TNFR1, Fas, HveA, DR3, DR4, DR5, DR6, DcR1, DcR2, TR6, OPG, RANK, AITR, TAC1, CD40, and OX40. […] TR6 has been previously described as a decoy receptor (Pitti et al., Nature 396:699-703 (1998); Yu et al., J. Biol. Chem. 274:13733-6 (1999)) capable of competing with Fas and HveA for binding of FasL and LIGHT, respectively.
Cells resistant to 0.5 mg/ml Genticin (Invitrogen) were selected and expanded. Expression of TNF-gamma-beta mRNA was confirmed by quantitative RT-PCR analysis and surface expression of TNF-gamma-beta protein confirmed by FACS analyses using TNF-gamma-beta monoclonal antibodies.
One million cells, in 0.1 ml of FACS buffer (PBS, 0.1% BSA, 0.1% NaN3), were incubated with 0.1-1 microgram of protein or antibody at RT for 15 min. The cells were washed with 3 ml of FACS buffer, reacted with biotinylated primary antibody, and stained with PE-conjugated secondary antibody at RT for 15 min. Cells were then washed again, resuspended in 0.5 microgram/ml of propidium iodide, and live cells were gated and analyzed on a FACScan using the CellQuest software (BD Biosciences).

[4] = molecular target: T1, TNF-gamma-beta; test: Inhibition of TNF-gamma-beta induced caspase activation in TF-1 cells; type: cell-based; details: presence of cycloheximide
Procedure: Briefly, cells growing in microtiter plates are induced to undergo apoptosis, causing an activation of caspase activities. Equal volume of a caspase substrate (Asp-Glu-Val-Asp-Rhodamine 110, or DEVD-R110) solution is then added and incubated for at least 1 hour. During this incubation, cells are being lysed and free R110 is released from the substrate. The level of free R110 is determined fluorimetrically, using a fluorescence reader with excitation filter 470-500 nm and emission filter 500-560 nm.
A black 96-well plate with a clear bottom is seeded with 75,000 TF-1 cells in RPMI containing 1% fetal bovine serum and micrograms/milliliter cyclohexamide. […] Following the manufacturer's directions, an equal volume of 1×substrate solution containing 50 micromolar DEVD-R110 diluted in incubation buffer is added to each well. The 96-well plates are then incubated for 2 hours after which the plate is read in a fluorescence reader with an excitation filter at 485 nm and an emission filter at 535 nm.
These solutions were then incubated for 1 hour at room temperature.
The reagents were incubated for 1 hour at RT to allow the formation of protein-TNF-gamma-beta complexes and then added to the cells. Caspase activity was measured as described above.

[5] = system: TNF-gamma on the cell surface; test: FACS analysis of receptor-ligand binding on cells
Procedure: Consistent with the Northern blot analysis, peripheral blood mononuclear cells (PBMC) and human umbilical vein endothelial cells (HUVEC) express TNF-gamma on the cell surface by immunostaining with antibody to TNF-gamma. [Cells were collected by trypsinization or aspiration, and centrifuged at 1500-2000 rpm for 5 min. The cell pellets were resuspended and washed in 5 ml ice-cold PBS twice. The cells were incubated for 30 min at […] with antibody (10 mg/ml ) to TNF-gamma to detected expression of TNF-gamma on cell surface, with DR3-Fc or LTbR-Fc (10 mg/ml) for receptor and ligand binding in the binding buffer (HBSS containing 10% BSA, 20 mM HEPES, pH 7.2, 0.02% NaN3). […] Fluorescence was analyzed by a FACscan flow cytometer (Becton Dickinson, Mountain View, Calif.).] […] After incubation at 37° C. for 72 hr, the NF-kB activity was measured with luminometer at absorbance of 450 nm.]
Cells were collected by trypsinization or aspiration, and centrifuged at 1500-2000 rpm for 5 min. […] The cells were incubated for 30 min at 40° C. with antibody (10 mg/ml ) to TNF-gamma to detected expression of TNF-gamma on cell surface, with DR3-Fc or LTbR-Fc (10 mg/ml) for receptor and ligand binding in the binding buffer (HBSS containing 10% BSA, 20 mM HEPES, pH 7.2, 0.02% NaN3). […] Fluorescence was analyzed by a FACscan flow cytometer (Becton Dickinson, Mountain View, Calif.).

[6] = molecular target: T1, TNF-gamma-beta; test: Inhibition of TNF-gamma-beta activation of NF-κB in 293T cells; type: cell-based
Procedure: To avoid spontaneous apoptosis or NF-κB activation accompanied with DR3 overexpression, a limited amount of DR3-expression DNA that by itself minimally activated these pathways was used.
293T cells were transiently transfected using LipofectAMINE and PLUS reagents according to the manufacturer's instruction (Invitrogen). For reporter assays, 293T cells, at 5×10^5 cells/well, were seeded in 6-well plates and transfected with a total of 1 microgram of DNA. pC4 DNA was used as filler DNA. Conditioned supernatant was collected 24 hr post-transfection and assayed for secreted alkaline phosphatase (SEAP) activity using the Phospha-Light™ chemiluminescent reporter gene assay system (Tropix). pCMV-lacZ was used as internal control for transfection efficiency normalization.

[7] = molecular target: T2, TNF-gamma-beta; test: Neutralization of TNF-gamma-beta induced SEAP production in TF-1/SRE reporter cells; type: cell-based; details: TNF-gamma-beta at 200 ng/mL, TF1/SRE reporter cells
Procedure: Briefly, a poly-D-lysine coated 96-well plate is seeded with TF-1/SRE-SEAP cells (in RPMI+0.2% Fetal bovine serum) at 75,000 cells per well. […] Again cells were incubated overnight. After overnight incubation, conditioned media were collected and SEAP activity was determined using the SEAP Reporter Gene Assay available from Roche Molecular Biochemicals (Indianapolis, Ind.) according to the manufacturer's directions. Briefly, Conditioned media were diluted 1:4 into dilution buffer. Samples were incubated at 65C for 30 minutes to eliminate contaminating AP activity usually present in culture medium. 25 microliters of the heat-inactivated samples were mixed with equal volume of inactivation buffer (containing a mixture of differential alkaline phosphatase inhibitors). Following a 5-minute incubation at room temperature, 50 uL of alkaline phosphatase substrate (CSPD) was added to each well. Chemiluminescence signal was read 10-15 minutes later using a luminometer.
These solutions were then incubated for 1 hour at room temperature. […] After the overnight incubation, the SEAP assay was performed as described above.
The premyeloid cell line TF-1 was stably transfected with SRE/SEAP (Signal Response Element/Secreted Alkaline Phosphatase) reporter plasmid that responds to the SRE signal transduction pathway.

[8] = system: adult bovine aortic endothelial (ABAE) cells; test: In vitro angiogenesis assay (capillary-like tubes on collagen gels); type: cell-based; details: control
[9] = system: WEHI 164 cells; test: Measurement of apoptosis (nucleosome ELISA); type: cell-based, mouse; details: increasing amounts (FIG. 12)
Procedure: In a first incubation step, anti-histone antibody was fixed adsorptively on the wall of a microtiter plate module. Subsequently, non-specific binding sites on the wall were saturated by treatment with incubation buffer (e.g., blocking solution). During the second incubation step, the nucleosomes contained in the WEHI 164 cell sample treated with the TNF-alpha, TNF-beta or bacterially-produced TNF-gamma were bound via their histone components to the immobilized anti-histone antibody. In the third incubation step, anti-DNA-peroxidase (POD) reacted with the DNA component of the nucleosomes. After removal of all unbound peroxidase conjugate by a washing step, the amount of peroxidase retained in the immunocomplex was determined spectrophotometrically using the substrate ABTS (2,2′-azino-di-[3-ethylbenzthiazoline sulfonate]). Anti-histone antibody reacted with the histones H1, H2A, H2B, H3, and H4 from the sample. Anti-DNA POD antibody bound to single- and double-stranded DNA. Therefore, the ELISA allowed the detection of mono- and oligonucleosomes and may be applied to measure apoptotic cell death. The level of cell death was measured by the amount of cytoplasmic histone-associated DNA fragments which was indicated by the ratio of the absorbances observed at 405 and 490 nm (A405/A490). […]

Molecule: DR3-Fc: recombinant receptor DR3-Fc fusion protein (Fc-extracellular domain of DR3) [reference compound]
- inhibition of TNF-gamma-beta-mediated IFNγ secretion [1]: able to inhibit
- immunoprecipitation of TNF-gamma-beta [2]: specifically interacted with FLAG-TNF-gamma-beta
- binding to cells expressing TNF-gamma-beta (FACS) [3]: bound efficiently
- inhibition of TNF-gamma-beta induced caspase activation [4]: inhibited by either DR3-Fc or TR6-Fc protein
- binding to HUVEC cells and PBMC ([5]; FACS): also binds to HUVEC cells and PBMC
- binding to TNF-gamma-transfected tumor cells (FACS shift) ([5]; MC-38/TNF-gamma cells): indicating cell-surface binding between TNF-gamma and DR3
- inhibition of TNF-gamma-beta activation of NF-κB [6]: specifically inhibited

Molecule: DR3.Fc: extracellular domain of human DR3 (aa 1-199) fused to the Fc domain of human IgG1
- immunoprecipitation of TNF-gamma-beta [2]: can be used to immunoprecipitate TNF-gamma-beta
- neutralization of TNF-gamma-beta SEAP activity by receptor-Fc [7]: interacts with TNF-gamma-beta
- inhibition of TNF-gamma-beta activation of NF-κB [6]: able to inhibit

Molecule: FGF-2: angiogenic factor FGF-2
- EC50 value to stimulate in vitro angiogenesis [8]: about 5 ng/ml
- concentration of maximum stimulatory effect on in vitro angiogenesis [8]: 10 ng/mL

B1: TNF-beta: tumor necrosis factor beta (lymphotoxin), control cytokine (protein, UniProt P01374 35-205, looked up)
Lymphotoxin-alpha: LPGVGLTPSAAQTARQHPKMHLAHSTLKPAAHLIGDPSKQNSLLWRANTDRAFLQDGFSLSNNSLLVPTSGIYFVYSQVVFSGKAYSPKATSSPLYLAHEVQLFSSQYPFHVPLLSSQKMVYPGLQEPWLHSMYHGAAFQLTQGDQLSTHTDGIPHLVLSPSTVFFGAFAL
- apoptosis (cytoplasmic histone-associated DNA fragments, A405/A490) [9]: also observed in the presence of increasing amounts
